Assay results: patent US20050191294A1 (University of Texas, published 2005)

B1: WDLAWMFRLPVG (SEQ ID NO:7)-phage (peptide)
peptide: WDLAWMFRLPVG
notes: whole phage particles stood in the assay; also called GRP78-targeting phage clone; not shown: pIII coat protein of fd-based phage (fUSE5 vector)
B2: WIFPWIQL (SEQ ID NO:6)-phage (peptide)
peptide: WIFPWIQL
notes: as for B1
B3: CGRRAGGSC (SEQ ID NO:1)-displaying phage (peptide, not shown: large carriers)
peptide: CGRRAGGSC
notes: whole phage particles stood in the assay; also called IL-11-mimic phage; IL-11 mimic phage

How the values were obtained:
[1] = biological target: T1, GRP78 of human prostate cancer cells (DU145 cell surface; human prostate cancer bone metastasis sections) (human, UniProt P11021 19-654); assay: BRASIL aqueous-organic phase separation, phage on intact DU145 cells
T1 construct: whole, on cells; Endogenous protein; used for the intact-cell (BRASIL) assay and for tissue section overlays; also called GRP78 expressed on the membrane of the prostate cancer cells
Procedure: Cell-binding assays. Biopanning and Rapid Analysis of Selective Interactive Ligands (BRASIL) method was used to evaluate phage binding to intact cells. In brief, cultured human prostate cancer-derived DU 145 cells were detached with ethylenediaminetetraacetate (EDTA) and resuspended in Dulbecco's modified Eagle's medium (DMEM) containing 1% BSA at 4×10⁶ cells per ml. The cell suspension (50 μl) was incubated with 10⁹ of […] (SEQ ID NO:6)—phage, […] (SEQ ID NO:7)—phage, or insertless Fd-tet phage (negative control) at 4° C. in constant slow rotation. After 2 hours, the phage/cell mixture (aqueous phase) was gently transferred to the top of a non-miscible organic phase (200 μl solution in a 400 μl Eppendorf tube) consisting of dibutyl phtalate:cyclohexane (9:1 [v:v]; d=1.03 g ml⁻¹) and centrifuiged at 10,000 g for 10 minutes at 4° C. The tube was then snap frozen in liquid nitrogen, the bottom of the tube was sliced off, and the cell-phage pellet was isolated. Cell membrane bound phage were recovered by infection with the host bacteria.
GRP78-binding phage clones bind specifically to prostate cancer cells. Having determined the binding specificity of aptamers to GRP78 in vitro, the binding of filamentous phage clones displaying […] […] (SEQ ID NO:7) (FIG. 5B) 580 to intact DU145 human prostate cancer cells by using an aqueous-organic phase separation was evaluated. […]

[2] = biological target: T2, recombinant GRP78 (Stressgen); assay: phage binding to GRP78 immobilized on microtiter wells, 10^9 TU, bound TU counted
T2 construct: Bought protein; also called Glucose-regulated protein-78; immobilized GRP78
Procedure: In vitro phage binding assays. GRP78, HSP70, HSP90 (all from Stressgen, Victoria, Canada) and bovine serum albumin (BSA) were immobilized on microtiter wells of 96-well plates overnight at 4° C. Wells were washed twice with phosphate-buffered saline (PBS), blocked with PBS containing 3% BSA for 1 hour at room temperature (RT), and incubated with 10⁹ transducing units (TU) of […] (SEQ ID NO:6)-phage, […] (SEQ ID NO:7)-phage, or insertless control phage (Fd-tet) in 50 μl of PBS containing 1.5% BSA. After 2 hours at RT, wells were washed with PBS, and bound phage were recovered by infection with host bacteria (log-phase Escherichia coli K91 kan; OD₆₀₀≈2). Aliquots of the bacterial culture were plated onto Luria-Bertani broth (LB) agar plates supplemented with 40 μg/ml tetracycline and 100 μg/ml kanamycin. Plates were incubated overnight at 37° C., and phage TU were counted in triplicate plates. Increasing concentrations of synthetic peptides […] (SEQ ID NO:6), […] (SEQ ID NO:7)-, and an unrelated control peptide CARAC (SEQ ID NO:9) (Genemed Synthesis Inc., San Francisco, Calif.) were used to evaluate competitive inhibition of phage binding. All peptides were solubilized in a standard stock solution of 10% dimethylsulfoxide (DMSO) and diluted to working concentrations for the assays.
Peptide aptamers bind specifically to immobilized GRP78. […]

[3] = biological target: T3, IL-11Rα of human prostate cancer cells (LNCaP, MDA-PCa-2b) and human prostate cancer tissue sections (human, UniProt Q14626 23-422); assay: phage overlay on human prostate cancer tissue sections, compared with anti-IL-11Rα antibody staining
T3 construct: whole, on cells; Endogenous receptor; used both for cell assays and for tissue section overlays; also called IL-11 receptor alpha; interleukin-11 receptor alpha
T3 sequence (looked up): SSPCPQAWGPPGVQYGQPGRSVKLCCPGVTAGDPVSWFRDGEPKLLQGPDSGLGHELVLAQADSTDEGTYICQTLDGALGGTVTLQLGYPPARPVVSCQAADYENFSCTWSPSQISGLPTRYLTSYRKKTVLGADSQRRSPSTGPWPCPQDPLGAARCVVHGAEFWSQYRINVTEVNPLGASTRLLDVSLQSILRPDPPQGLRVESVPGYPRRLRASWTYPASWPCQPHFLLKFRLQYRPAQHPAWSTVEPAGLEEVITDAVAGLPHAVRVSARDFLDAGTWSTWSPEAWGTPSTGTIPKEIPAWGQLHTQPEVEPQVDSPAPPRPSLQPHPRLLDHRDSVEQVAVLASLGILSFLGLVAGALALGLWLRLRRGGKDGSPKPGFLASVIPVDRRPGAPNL

T1 sequence (P11021 19-654): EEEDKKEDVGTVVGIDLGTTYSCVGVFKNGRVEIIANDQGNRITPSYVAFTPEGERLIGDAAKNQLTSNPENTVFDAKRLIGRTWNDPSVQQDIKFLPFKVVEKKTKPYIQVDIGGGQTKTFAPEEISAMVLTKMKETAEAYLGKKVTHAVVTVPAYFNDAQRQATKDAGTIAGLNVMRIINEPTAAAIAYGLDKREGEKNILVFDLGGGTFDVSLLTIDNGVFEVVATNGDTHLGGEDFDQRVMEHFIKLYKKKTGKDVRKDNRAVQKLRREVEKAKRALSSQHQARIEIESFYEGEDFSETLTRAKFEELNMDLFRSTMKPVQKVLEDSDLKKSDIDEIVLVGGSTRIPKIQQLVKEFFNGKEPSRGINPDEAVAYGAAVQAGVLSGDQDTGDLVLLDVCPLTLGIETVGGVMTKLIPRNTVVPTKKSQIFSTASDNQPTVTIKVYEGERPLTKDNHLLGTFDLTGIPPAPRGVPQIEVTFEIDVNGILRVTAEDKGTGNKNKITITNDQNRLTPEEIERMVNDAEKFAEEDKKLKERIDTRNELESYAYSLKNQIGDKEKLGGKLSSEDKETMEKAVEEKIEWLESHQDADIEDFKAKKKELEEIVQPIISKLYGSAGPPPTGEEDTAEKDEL
T2 sequence (P07823 19-654): as the sequence (P11021 19-654) above, with Y295F, A631S counted along it

Binder | fold binding over control phage (fd-tet) [1] | fold binding over negative control phage (fd-tet) [2] | binding result [3]
B1 | 30 fold | 260 fold | –
B2 | 30 fold | 870 fold | –
B3 | – | – | binds
